Data as given in doi:10.1101/2020.09.24.311712, “Surface condensation of a pioneer transcription factor on DNA”.

Assays:
[1] = target: MBP-Klf4-GFP (Homo sapiens, UniProt O43474 1-513); test: EMSA; poly-d(IC) 37.5 ng; Kd value not in material; EMSA: 25 mM Tris pH 7.4, 125 mM KCl, 6% glycerol, 1 mM DTT, 0.1 mg/ml BSA, 7.5 nM Cy5-dsDNA, 37.5 ng poly-d(IC), 20 min at 4 °C; details: protein: recombinant, tags: N-terminal MBP (3C-cleavable), label: Cy5 at 3' end of strand 1 (so in the source), blunt
[2] = target: Klf4-GFP (Homo sapiens, UniProt O43474 1-513); test: EMSA; poly-d(IC) 37.5 ng; Kd plotted in ED Fig. 2c but value not in material; EMSA: 25 mM Tris pH 7.4, 125 mM KCl, 6% glycerol, 1 mM DTT, 0.1 mg/ml BSA, 7.5 nM Cy5-dsDNA, 37.5 ng poly-d(IC), 20 min at 4 °C; details: protein: recombinant; tags: C-terminal GFP; MBP removed with 3C protease; label: Cy5 at 3' end of strand 1 (so in the source); blunt
Chain of Klf4-GFP (O43474 whole entry): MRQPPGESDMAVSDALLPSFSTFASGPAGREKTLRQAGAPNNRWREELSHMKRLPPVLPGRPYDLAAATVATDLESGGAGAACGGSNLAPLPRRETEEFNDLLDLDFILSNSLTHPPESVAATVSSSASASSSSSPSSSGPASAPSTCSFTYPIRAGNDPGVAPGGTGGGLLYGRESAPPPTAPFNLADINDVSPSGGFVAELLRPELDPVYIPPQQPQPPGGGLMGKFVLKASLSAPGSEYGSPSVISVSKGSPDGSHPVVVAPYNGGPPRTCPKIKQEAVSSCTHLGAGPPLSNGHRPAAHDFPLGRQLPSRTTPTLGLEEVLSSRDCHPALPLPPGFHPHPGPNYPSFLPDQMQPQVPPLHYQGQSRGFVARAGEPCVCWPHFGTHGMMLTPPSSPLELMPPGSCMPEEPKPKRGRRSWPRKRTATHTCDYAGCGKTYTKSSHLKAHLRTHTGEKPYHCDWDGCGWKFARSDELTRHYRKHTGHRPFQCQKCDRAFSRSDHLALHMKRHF

Chain of MBP-Klf4-GFP (O43474 whole entry): as above

B1: Klf4 specific dsDNA EMSA (dsDNA)
DNA 1: GGAGGGGTGTGGGGCTG
DNA 2: CAGCCCCACACCCCTCC
- binding result [1]: binds
- binding result [2]: binds
